Where no end group is shown, it is not given here. [ ]: non-standard residue; d: D form.
Legend:
[1] = target: Aβ (1-42) (UniProt P05067 672-713); assay: cell-based or functional assay
[2] = target: the molecule itself; assay: self-association: PICUP cross-linking of the peptide alone at 36 µM, gel, silver staining
Description: Peptides were also cross-linked by PICUP and analyzed for self-association. […] Cross-linked samples were then heated at 95° C. for 5 min and separated on a 10-20% Tris-Tricine gradient gel. Peptides were visualized by silver staining (SilverStain Kit, Pierce, Rockford, Ill.).
Peptide self-assembly was probed by photo-induced crosslinking (PICUP) followed by gel electrophoresis.

B1: LG3 (peptide)
peptide: SKVVT[dP]PRYTIAALLSPYSYSQ
Aβ toxicity, MTS assay with primary mouse neuronal cultures (10 µM Aβ) [1]: 10 µM

B2: CG3 (peptide)
peptide: cyclo(SKVVT[dP]PRYTIAALLSPYSYSQ)
SMILES: CC[C@H](C)[C@@H]1NC(=O)[C@H]([C@@H](C)O)NC(=O)[C@H](Cc2ccc(O)cc2)NC(=O)[C@H](CCCNC(=N)N)NC(=O)[C@@H]2CCCN2C(=O)[C@H]2CCCN2C(=O)[C@H]([C@@H](C)O)NC(=O)[C@H](C(C)C)NC(=O)[C@H](C(C)C)NC(=O)[C@H](CCCCN)NC(=O)[C@H](CO)NC(=O)[C@H](CCC(N)=O)NC(=O)[C@H](CO)NC(=O)[C@H](Cc2ccc(O)cc2)NC(=O)[C@H](CO)NC(=O)[C@H](Cc2ccc(O)cc2)NC(=O)[C@@H]2CCCN2C(=O)[C@H](CO)NC(=O)[C@H](CC(C)C)NC(=O)[C@H](CC(C)C)NC(=O)[C@H](C)NC(=O)[C@H](C)NC1=O
Aβ toxicity, MTS assay with primary mouse neuronal cultures (10 µM Aβ) [1]: 10 µM

B3: G16 (peptide)
peptide: Ac-PRRYTIAALLSPYSWS-NH2
notes: also called 16-mer linear peptide
binding result [2]: binds

B4: CG2 (peptide)
peptide: cyclo(SKV[dP]PTIAALLSPYSYSQ)
SMILES: CC[C@H](C)[C@@H]1NC(=O)[C@H]([C@@H](C)O)NC(=O)[C@@H]2CCCN2C(=O)[C@H]2CCCN2C(=O)[C@H](C(C)C)NC(=O)[C@H](CCCCN)NC(=O)[C@H](CO)NC(=O)[C@H](CCC(N)=O)NC(=O)[C@H](CO)NC(=O)[C@H](Cc2ccc(O)cc2)NC(=O)[C@H](CO)NC(=O)[C@H](Cc2ccc(O)cc2)NC(=O)[C@@H]2CCCN2C(=O)[C@H](CO)NC(=O)[C@H](CC(C)C)NC(=O)[C@H](CC(C)C)NC(=O)[C@H](C)NC(=O)[C@H](C)NC1=O
Aβ toxicity, MTS assay with primary mouse neuronal cultures (10 µM Aβ) [1]: 10 µM
